Patent publication US20130202594A1, “ALK1 Antagonists and Their Uses in Treating Renal Cell Carcinoma” (priority 2012, published 2013)
pKd: −log10 of the molar value.

What was measured:
[1] = Size exclusion chromatography of ALK1-Fc preparations (dimers vs aggregates); assay type: physicochemical
Experimental: The R&D Systems material contains approximately 13% aggregated protein, as shown by the peaks on the left hand side of the graph, as well as some lower molecular weight species. The material of SEQ ID NO:3 is greater than 99% composed of dimers of the appropriate molecular size.
In one approach, a number of different cell culture media were tested. […] The resulting material is comprised of greater than 99% dimers. […] Having identified aggregate formation as a significant problem in ALK1-Fc production, it is expected that other approaches may be developed, including approaches that involve additional purification steps (although such approaches may result in lower yield of purified protein).

[2] = test system: 786-0 cells; test: 786-0 human RCC tumor xenograft model; assay type: in vivo, mouse; details: sunitinib 53.6 mg/kg gavage 6 of 7 days; ALK1-Fc 10 mg/kg IP 3 times per week
Experimental: 786-0 cells, a von Hippel Lindau (VHL)-deficient human renal cell carcinoma (RCC) cell line (see Iliopoulos et al., Nature Medicine 1995; 1:822-6), was obtained from the American Type Culture Collection, and cultured in RPMI 1640 medium (Cellgro). Media was supplemented with 2 mmol/L L-glutamine, 10% FCS, and 1% streptomycin (50 μg/mL), and cells were cultured at 37° C. with 5% CO2. 786-0 cells were harvested from subconfluent cultures by a brief exposure to 0.25% trypsin and 0.02% EDTA. Trypsinization was stopped with medium containing 10% fetal bovine serum and the cells were washed once in serum-free medium and resuspended in PBS. Only suspensions consisting of single cells with >90% viability were used for the injections.
To establish human RCC xenografts, 786-0 tumor cells were injected subcutaneously (1×10^7 cells) into the flanks of 6- to 8-week-old female athymic nude/beige mice (Charles River Laboratories) that were of 20 g average body weight. Tumors developed in >80% of the mice and were usually visible within a few days of implantation. Mice were treated with vehicle plus Fc, sunitinib plus Fc, vehicle plus ALK-Fc, or sunitinib plus ALK-Fc when the tumors had grown to a diameter of 12 mm. Sunitinib (53.6 mg/kg; Pfizer) was administered 6 of 7 days per week by gavage beginning. […] Tumors were measured every two days while mice were on treatment.

[3] = molecular target: T1, GDF7 (Homo sapiens, UniProt Q7Z4P5); test: Biacore binding to hALK1-Fc: GDF7
T1 sequence (Q7Z4P5 322-450): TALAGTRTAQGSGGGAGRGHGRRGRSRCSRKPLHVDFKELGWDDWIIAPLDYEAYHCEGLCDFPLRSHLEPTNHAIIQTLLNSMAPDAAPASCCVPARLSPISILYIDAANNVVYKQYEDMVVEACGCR
Experimental: (§1) ALK1 is a type 1 receptor for ligands of the TGFβ family. Multiple members of the TGFβ family were tested for binding to a human ALK1-Fc fusion protein, using a Biacore™ system.

[4] = molecular target: TGFβ (Homo sapiens, UniProt P01137); test: Biacore binding to hALK1-Fc: TGFβ
TGFβ, sequence (P01137 279-390): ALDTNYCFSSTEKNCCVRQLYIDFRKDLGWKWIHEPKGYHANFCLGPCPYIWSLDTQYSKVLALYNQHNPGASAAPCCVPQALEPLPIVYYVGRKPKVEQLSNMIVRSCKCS
Experimental: as §1

[5] = molecular target: GDF11 (Homo sapiens, UniProt O95390); test: Biacore binding to hALK1-Fc: GDF11
GDF11, sequence (O95390 299-407, species assumed): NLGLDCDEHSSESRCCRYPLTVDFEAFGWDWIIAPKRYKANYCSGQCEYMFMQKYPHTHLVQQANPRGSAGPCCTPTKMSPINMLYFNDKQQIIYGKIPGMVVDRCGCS
Experimental: as §1

Question: What does the source list for “hALK1-Fc: extracellular domain of human ALK1 (amino acids 22-120) fused to a human IgG1 Fc with a minimal linker (SEQ ID NO:3/14)”?
Answer: dimers [1]: greater than 99%; tumor growth [2]: trended toward inhibiting tumor growth as a single agent; pKd [3]: ~7.30; binding to hALK1-Fc [4]: failed to show substantial binding; binding to hALK1-Fc [5]: failed to show substantial binding
